Assay results from IntAct's records for PubMed 16615911.

B1: E3 ubiquitin-protein ligase SIAH1A (Mus musculus), P61092 (parent)
chain: MSRQTATALPTGTSKCPPSQRVPALTGTTASNNDLASLFECPVCFDYVLPPILQCQSGHLVCSNCRPKLTCCPTCRGPLGSIRNLAMEKVANSVLFPCKYASSGCEITLPHTEKAEHEELCEFRPYSCPCPGASCKWQGSLDAVMPHLMHQHKSITTLQGEDIVFLATDINLPGAVDWVMMQSCFGFHFMLVLEKQEKYDGHQQFFAIVQLIGTRKQAENFAYRLELNGHRRRLTWEATPRSIHEGIATAIMNSDCLVFDTSIAQLFAENGNLGINVTISMC
partner: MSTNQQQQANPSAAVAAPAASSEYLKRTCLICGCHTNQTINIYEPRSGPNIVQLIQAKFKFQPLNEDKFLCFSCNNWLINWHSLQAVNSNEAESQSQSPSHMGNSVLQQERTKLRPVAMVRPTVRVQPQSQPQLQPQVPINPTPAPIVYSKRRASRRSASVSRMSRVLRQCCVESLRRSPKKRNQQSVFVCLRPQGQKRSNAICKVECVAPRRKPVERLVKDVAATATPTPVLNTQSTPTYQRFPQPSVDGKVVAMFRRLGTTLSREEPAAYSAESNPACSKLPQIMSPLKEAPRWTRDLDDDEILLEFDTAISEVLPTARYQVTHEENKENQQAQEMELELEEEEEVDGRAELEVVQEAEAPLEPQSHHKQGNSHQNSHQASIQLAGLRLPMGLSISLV

Variants of: B1
Settings: with phyl_drome phyl

Row | Variant | effect of a mutation on the interaction
1 | M180K | disrupting interaction
2 | L158D | disrupting interaction strength
